In this experiment the target is StrepHA-SGFP2 (control). Briefly: co-IP; co-IP/HiBiT assay: SGFP2-fused proteins immunoprecipitated with anti-GFP pAb from HEK293 or HEK293 ALG-2KO lysates (with or without co-expressed FLAG-ALG-2); HKM, 1% Nonidet P-40, 10 mM NEM, 10 μM CaCl2; co-precipitated HiBiTHA-SARAF read by lytic HiBiT assay with LgBiT, normalised by ….

B1: full-length HiBiTHA-SARAF (WT) (natural protein)
chain: WNDPDRMLLRDVKALTLHYDRYTTSRRLDPIPQLKCVGGTAGCDSYTPKVIQCQNKGWDGYDVQWECKTDLDIAYKFGKTVVSCEGYESSEDQYVLRGSCGLEYNLDYTELGLQKLKESGKQHGFASFSDYYYKWSSADSCNMSGLITIVVLLGIAFVVYKLFLSDGQYSPPPYSEYPPFSHRYQRFTNSAGPPPPGFKSEFTGPQNTGHGATSGFGSAFTGQQGYENSGPGFWTGLGTGGILGYLFGSNRAATPFSDSWYYPSYPPSYPGTWNRAYSPLHGGSGSYSVCSNSDTKTRTASGYGGTRRR
For B1, the relative interaction activity (WT expressed as 100%) is below 0.3%.

For the origin of these results see article PMC7504102.
